Molecular target: Biotinylated Human Thrombin (human) (UniProt P00734)
Test: mRNA display selection on biotinylated human thrombin, round 2; NGS read frequency

- counts: 86 counts
- percentage (%): 0.0052%
Substance: mRNA-displayed cow antibody scaffold polypeptide with cassette RTKIK*NGL* (designed binder)

Source: US20160312212A1, “COW ANTIBODY SCAFFOLD POLYPEPTIDE METHOD AND COMPOSITION” (Roche Sequencing Solutions, Inc., priority 2015, published 2016)
